Data reported in PMC4922585.

Assays:
[1] = molecular target: TF G164A-FVIIa complex on THP-1 cells (UniProt P13726)
[2] = molecular target: Wild-type TF-FVIIa complex on THP-1 cells (UniProt P13726)
[3] = molecular target: TF S160A-FVIIa complex on THP-1 cells (UniProt P13726)
[4] = molecular target: Wild-type TF-FVIIa complex on THP-1 cells (UniProt P13726); remark: listed apart in the source
[5] = molecular target: TFLBR-FVIIa complex on THP-1 cells (UniProt P13726)

Km of FX activation by TF-FVIIa on THP-1 cells (Michaelis-Menten kinetics) [1]: 0.191 µM
Km of FX activation by TF-FVIIa on THP-1 cells (Michaelis-Menten kinetics) [2]: 0.134 µM
Km of FX activation by TF-FVIIa on THP-1 cells (Michaelis-Menten kinetics) [3]: 0.117 µM
Km of FX activation by TF-FVIIa on THP-1 cells treated with HgCl2 (100 μM, 5 min) (FVIIa 10 nM, FX 25 to 1000 nM) [4]: 0.137 µM
Km of FX activation by TF-FVIIa on THP-1 cells treated with control vehicle (FVIIa 10 nM, FX 25 to 1000 nM) [4]: 0.187 µM
Km of FX activation by TF-FVIIa on THP-1 cells treated with HgCl2 (100 μM, 5 min) (FVIIa 10 nM, FX 25 to 1000 nM) [5]: 0.223 µM
Km of FX activation by TF-FVIIa on THP-1 cells treated with control vehicle (FVIIa 10 nM, FX 25 to 1000 nM) [5]: 0.196 µM
Substance: Purified human factor X (natural protein)
